Measurements published in US20230057263A1.
Blank lines part the entries; values can stand above or below the binder they belong to.

Experiments:
[1] = molecular target: human CD3 epsilon (CD3ε) (human) (UniProt P07766); experiment: flow cytometry on human T cells
[2] = molecular target: cynomolgus CD3-epsilon (cynomolgus) (UniProt Q95LI5); experiment: Luminex bead assay, 1 ug/ml antibody; recombinant cyno CD3 (sinobiologicals) on beads [Cont.]
[3] = molecular target: T1, (H2N-…-OH) vCD3e #p3-BSA; experiment: Luminex bead assay, 1 ug/ml antibody [Cont.]
T1 sequence (peptide, conjugated to BSA): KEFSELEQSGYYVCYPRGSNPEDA

[4] = molecular target: biotinylated 15-mer peptide corresponding to the CD3ε N-terminus (human) (UniProt P07766); experiment: Luminex bead assay, 1 ug/ml antibody [Cont.]
[5] = molecular target: huCD3d/eCHO-E DT1331 (human) (UniProt P04234); experiment: Luminex bead assay, 1 ug/ml antibody [Cont.]
huCD3d/eCHO-E DT1331 (human), sequence (P04234 22-105): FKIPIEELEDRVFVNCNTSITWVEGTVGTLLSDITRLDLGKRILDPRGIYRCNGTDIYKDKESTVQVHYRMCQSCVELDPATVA

[6] = molecular target: BSA alone (bovine) (UniProt P02769); experiment: Luminex bead assay, 1 ug/ml antibody [Cont.]
BSA alone (bovine), sequence (P02769 25-607 limits assumed): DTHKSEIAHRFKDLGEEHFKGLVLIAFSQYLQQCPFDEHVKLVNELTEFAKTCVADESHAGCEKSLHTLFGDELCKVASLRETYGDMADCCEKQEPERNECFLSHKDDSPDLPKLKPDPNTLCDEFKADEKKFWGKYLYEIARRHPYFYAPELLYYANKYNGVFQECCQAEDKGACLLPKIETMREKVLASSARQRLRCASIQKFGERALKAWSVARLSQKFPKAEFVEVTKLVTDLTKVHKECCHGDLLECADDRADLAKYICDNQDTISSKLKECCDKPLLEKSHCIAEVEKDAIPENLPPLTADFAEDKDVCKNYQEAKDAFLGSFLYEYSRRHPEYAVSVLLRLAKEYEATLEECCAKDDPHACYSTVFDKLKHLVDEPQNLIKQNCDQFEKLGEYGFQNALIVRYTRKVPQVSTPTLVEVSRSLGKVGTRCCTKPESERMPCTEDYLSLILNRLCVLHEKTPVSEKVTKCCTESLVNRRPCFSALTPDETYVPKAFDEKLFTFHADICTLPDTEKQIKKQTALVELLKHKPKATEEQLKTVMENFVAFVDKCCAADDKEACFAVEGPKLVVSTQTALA

[7] = molecular target: vCD3e #p1 peptide; experiment: Luminex bead assay, 1 ug/ml antibody [Cont.]
[8] = molecular target: T2, (H2N-…-OH) vCD3e #p2-BSA; experiment: Luminex bead assay, 1 ug/ml antibody [Cont.]
T2 sequence (peptide, conjugated to BSA): CPQYPGSEILWQHNDK

[9] = molecular target: cynomolgus CD3-epsilon (cynomolgus) (UniProt Q95LI5); experiment: flow cytometry on cynomolgus T cells

cynomolgus CD3-epsilon (cynomolgus), sequence (Q95LI5 22-198): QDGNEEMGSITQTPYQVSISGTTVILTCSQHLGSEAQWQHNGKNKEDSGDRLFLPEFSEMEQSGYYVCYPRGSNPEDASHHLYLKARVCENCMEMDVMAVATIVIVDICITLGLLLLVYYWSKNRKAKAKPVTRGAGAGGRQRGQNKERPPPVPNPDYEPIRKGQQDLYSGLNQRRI

EC50 (read off the curve) [1]: 0.2 nM
Luminex signal [2]: 17200
Luminex signal [3]: 439
Luminex signal [4]: 6.5
Luminex signal [5]: 22100
Luminex signal [6]: 398
Luminex signal [7]: 17900
Luminex signal [8]: 184
EC50 (read off the curve) [9]: 0.3 nM
B1: SP34-2 (antibody, from a related filing, V domains shown)
VH: EVQLVESGGGLVQPKGSLKLSCAASGFTFNTYAMNWVRQAPGKGLEWVARIRSKYNNYATYYADSVKDRFTISRDDSQSILYLQMNNLKTEDTAMYYCVRHGNFGNSYVSWFAYWGQGTLVTVSA
VL: QAVVTQESALTTSPGETVTLTCRSSTGAVTTSNYANWVQEKPDHLFTGLIGGTNKRAPGVPARFSGSLIGDKAALTITGAQTEDEAIYFCALWYSNLWVFGGGTKLTVL

Luminex signal [8]: 238
B2: 6d59 (antibody, V domains shown)
VH: QVHLVESGGGVVQPGRSLRLSCAASGFKFRSYGMHWVRQAPGKGLEWVAIIWYDGSKRYYADSVKGRFTISRDNSKNTLYLQMSSLRAEDTAVYYCARDLITGTTDYWGQGTLVTVSS
VL: DVVMTQSPLSLPVTLGQPASISCRSSRSLVYSDGNTHLIWFQQRPGQSPRRLIYRVSNRVSGVPDRFSGSGSGTDFTLKISRVEAEDVGVYYCLQGAHWPYTFGQGTKLEIKR
